Laboratory results as given in paper PMC12406181 (2025).

Molecular target: T1, HER2-DIVMP (HER2 domain IV model receptor) domain IV fragment (Homo sapiens, UniProt P04626)
T1 chain: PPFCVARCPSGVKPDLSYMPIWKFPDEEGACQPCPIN
Assay: fluorescence spectroscopy titration

B1: A9-PEG-A9 dimer (peptide)
chain: QDVNTAVAW
modifications: not fully specified; two A9 chains N-terminally linked via PEG (1 kDa), C-terminal amide; HER2-DIVMP is a synthetic two-chain disulfide-linked peptide
In the case of B1, the Kd is reported as 5.7 nM.
